{"source": "paper PMC11088704", "about": "“Structural basis for the regulation of plant transcription factor WRKY33 by the VQ protein SIB1” (Communications Biology, 2024)", "binders": {"B1": {"name": "W-box DNA (dsDNA)", "DNA 1": "AAAGTTGACCAA", "DNA 2": "TTGGTCAACTTT"}}, "key": {"[1]": {"target": "WRKY33_C;SIB1 (SIB1 11-100) (Arabidopsis thaliana;Arabidopsis …, UniProt Q8S8P5;Q9LDH1 345-422;11-100, |)", "sequence (Q8S8P5 345-422, chain 1 of 2)": "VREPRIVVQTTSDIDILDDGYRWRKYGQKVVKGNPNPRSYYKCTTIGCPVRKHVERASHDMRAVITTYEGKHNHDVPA", "sequence (Q9LDH1 11-100, chain 2 of 2)": "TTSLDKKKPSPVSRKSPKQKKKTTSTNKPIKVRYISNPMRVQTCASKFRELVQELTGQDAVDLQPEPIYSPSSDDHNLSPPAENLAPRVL", "assay": "EMSA; SIB1:WRKY33_C 2:1; ternary complex; Kd not fittable; EMSA: NMR buffer (composition not given in material) with 100 mM NaCl, 1.0 ng dsDNA in 20 ul, room temperature 20 min, SIB1:WRKY33_C 2:1; gel in 0.5x TBE, GelRed stain", "conditions": "protein: recombinant;recombinant; tags: C-terminal 6xHis;C-terminal 6xHis; copies: 1;1; blunt"}, "WRKY33_C;SIB1mini": {"target": "WRKY33_C;SIB1mini (Arabidopsis thaliana;Arabidopsis …, UniProt Q8S8P5;Q9LDH1 345-422;46-69, |)", "sequence (Q8S8P5 345-422, chain 1 of 2)": "as the sequence (Q8S8P5 345-422, chain 1 of 2) above", "sequence (Q9LDH1 46-69, chain 2 of 2)": "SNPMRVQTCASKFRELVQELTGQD", "assay": "EMSA; SIB1mini present; Kd not fittable; EMSA: NMR buffer (composition not given in material) with 100 mM NaCl, 1.0 ng dsDNA in 20 ul, room temperature 20 min, SIB1:WRKY33_C 2:1; gel in 0.5x TBE, GelRed stain", "conditions": "tags: C-terminal 6xHis;; copies: 1;1; blunt"}}, "data": [{"binder": "B1", "values": [{"measurement": "binding signal", "setting": "[1]", "result": "~95 % DNA bound at 1:1 molar ratio (WRKY33_C alone ~80%)"}, {"measurement": "binding signal", "setting": "WRKY33_C;SIB1mini", "result": "~95 % DNA bound at 1:1 molar ratio (WRKY33 alone ~80%)"}]}]}
